Assays:
[1] = Stability of myeloperoxidase activity of wt RbMPO on storage in different buffers; format: physicochemical; conditions: stored in PBS buffer pH 6.6 at 37° C., up to 60 minutes
Experimental: The enzyme was concentrated at […] for the 4° C. storage condition and at 132.2 μM for the 37° C. storage condition. The MPO activity of the enzyme was assessed at different time points by a standard activity test.
The MPO activity of the enzyme was assessed at different time points by a standard activity test. To do so, the concentrated enzyme was diluted and contacted with H2O2, NaCl and APF.
The value obtained at TO is defined as 100% of the enzymatic (MPO) activity at the temperature tested and all the other activities are calculated from this TO timepoint.

[2] = Pre-steady state: return of wt RbMPO to its native state, Br^− range; format: biochemical; conditions: H2O2: 20 μM
Experimental: (§1) Kinetic parameters under pre-steady-state condition were performed with a Biologic SFM400 stopped-flow at 412 nm, 37° C. and with 50 mM sodium phosphate buffer at pH7.5. […] An exponential linear fit was applied to each kinetic using the following formula: […]
(§2) The return of the enzyme to its native state was studied by the impact of increasing concentrations of (pseudo)-halides substrates on compound I (FIG. 9B). […] It is the time difference (s) between the two characteristic steps that allowed the calculation of the values of the Vreturn(μM^−1.s^−1) values: […]

[3] = Pre-steady state: return of wt RbMPO to its native state, Cl^− range; format: biochemical; conditions: H2O2: 20 μM
Experimental: as §1, §2

[4] = Heme reconstitution of apo wt and mutated RbMPOs (tryptophan fluorescence quenching); format: binding; conditions: heme reconstitution of apo enzyme; 1 μM enzyme, 50 mM sodium phosphate pH7.5, 25° C.
Experimental: Sample dilutions were performed in a 50 mM pH7.5 sodium phosphate buffer.

[5] = Steady-state kinetics by stopped-flow, NaCl (Tau-NHCl formation, 253 nm); format: biochemical; conditions: NaCl range (k2), 300 nM of enzyme and 79 μM of H2O2
Experimental: (§3) pH- and temperature-dependent studies were carried out for each substrate.
(§4) These temperatures were reached by using a stopped-flow coupled to a cryostat.
(§5) For temperature and pH measurements, RbMPO was set at the same concentration as in the determination of steady state kinetics parameters.

[6] = tested on: E. coli strain ATCC 25922; assay: Microbicidal activity: bacterial growth kinetics in a microplate (A620nm, 16 h); format: cell-based; conditions: for inhibition of bacterial growth: glucose 14 mM, pH 7.4, 37° C.
Experimental: The microbicidal activity of RbMPO towards the E. coli strain ATCC 25922 was evaluated by two independent experiments.
E. coli 25922 were grown on TSB-agar for 16 h at 37° C. One colony is grown in 10 ml of TSB medium under stirring at 190 rpm at 37° C. The optical density (OD) of the bacterial preculture was measured at 620 nm in a spectrophotometer (Ultrospec 10, Biochrom). 25 ml of TSB medium was inoculated to obtain an OD of approximately 0.09. When the OD was between 1 and 2, a dilution in 10 mL of TSB medium was performed to obtain 2×10^6 CFU/ml. Bactericidal tests were performed in 96-well microplates under a final volume of 100 μl with 10^6 CFU/ml. The plate cover was treated with 0.05% TritonX−100 and 20% ethanol to prevent condensation and thus avoid misreading of the wells by the instrument. The solution was allowed to act on the lid for 10 minutes, then removed and dried under a class II biological safety cabinet. Each tested condition was performed at least in triplicate and each experiment was repeated at least 3 times. The kinetics was set to 16 h with a measurement at 620 nm every 15 minutes in a microplate reader (Wallac Victor 2,1420 Multilabel counter) thermostated at 37° C. [shaking duration: 10.0s; shaking speed: fast; shaking diameter: 0.5 mm; shaking type: orbital; measurement time: 0.2s; numbers of replicates: 60; time between replicates: 900 s; label: P620]. […] 5 mM bleach was used as a positive control and bacteria alone was used as a negative control. • By counting colonies on Petri dishes

[7] = Pre-steady state: return of wt RbMPO to its native state, I^− range; format: biochemical; conditions: from pre-steady state return to native state with I^−, SCN^−, Br^−, Cl^−
Experimental: as §1, §2

[8] = Catalase activity (absorbance decay at 240 nm, stopped-flow); format: biochemical; conditions: for kss: catalase, 300 nM enzyme, pH 7.5, 500 μM H2O2; for catalase activity, in words: 2 μM wt RbMPO, 37° C.
Experimental: Catalase activity was measured using the stopped-flow set-up, which was configured to measure absorbance decay at 240 nm and at 37° C.

E. coli ATCC 25922 = assay: Microbicidal activity: counting colonies on Petri dishes; format: cell-based; conditions: 1 h contact with 1.10^6 CFU/mL, 25 mM SCN^−, pH7.4; enzyme alone: wt RbMPO 300 nM or GOxaspniger 25 nM
Experimental: 10 mL of TSB medium (pH7.4) was inoculated with a freshly obtained colony of E. coli ATCC 25922, and the culture was incubated at 37° C. and 190 rpm overnight. In the morning, 25 mL of TSB medium were inoculated with the previous day's pre-culture to obtain an OD620 nm of 0.07 at TO. When the bacterial culture reached the exponential phase, the bacterial solution was diluted 10-fold in TSB in order to reach 1.10^6 CFU/mL. This dilution was then contacted with the enzyme solution for 1 hour (in a final volume of 1 mL). Further dilutions were then made (10^−1, 10^−4, 10−5, 10^−6). 100 μL of these solutions were spread on a Petri dish containing TSB agar medium and placed at 37° C. overnight. The next day, the surviving colonies were counted and the number of CFU/mL was calculated using the formula below: […]

[9] = Peroxidase activity with ABTS; format: biochemical; conditions: ABTS range; 0.5 nM wt RbMPO, 79 μM H2O2, pH5.5, 37° C.
Experimental: The plate reader was configured to run a 10 min kinetics at 430 nm with the following ABTS concentration range: 0, 0.1, 0.2, 0.5, 1, 2, 5, 10, 15, 20, 30 and 40 mM.

[10] = Steady-state kinetics by stopped-flow, NaBr (Tau-NHBr formation, 289 nm); format: biochemical; conditions: Br^− 500 mM, 267 nM RbMPO, H2O2 79 μM
Experimental: as §3, §4, §5

B1: wt RbMPO: novel bacterial heme peroxidase (myeloperoxidase-catalase) of about 78 KDa from Rhodopirellula baltica, SEQ ID NO: 1, produced recombinantly in E. coli (protein, listed as Rhodopirellula baltica)
chain: MLFWSKRTRKHPGRKRRRLRSEQLESRQLLAADFGGYRHNIYDAEDVNDDGRVSAIDALLVINAMTSETSRDENVFTDVNGDGRRSALDALRVINRIERGDVFPIDTSGDEDLNTLLPEMPSEVRSIDGSGNNPNDHLWGSVGQRLIRMAPAAYGDGISTLAGANRPSAREVSNVLSAMNTSQVLNDRGLSAFVYVWGQFIDHDLGLTESDEHGEAIDISVPEGDLWFDPMGSGEAVIPMTRTPIADGTGTSVGNPAQQFNQITAFIDGSMVYGSDAATAERLRTFAGGRLAISDNGLLPMDESGMVIAGDVRASENVGLTAIQTLFVREHNRLADEIFAADPEATDEEIYQRARLVVASLIQSITYNEFLPALLGQRAMDSYRGYDASVNPGIANEFSTAAFRLGHSTLRDEVGFMSNDGRESKDEMELKDAFFHASMLEETGIDSLLKFDASVQAQEIDLAVVDSLRNFLFGPPGAGGLDLVAMNIQRGRDHGLSDYNTTRQAYGLDRVETFDQITGDVELQQKLASLYGTVDNIDLWVGLMAEDHQHDASVGELTGLIIADQFQRTRDGDRFFYKNVLTDSEVESIERSTLADLIERNTSVDGLQENVFFMQVELRGRVILASSIPPNTMPSEVREEEIRGVSGMAIELIDASGKLVDSTVSDQHGNYRFRALSETGDYQVRLSESGEAMDVLVAHGAERIRGLDFIVLA
[1]
  fall of myeloperoxidase activity: 50%
[2]
  kreturn/K1/2: 607.77 ± 161.51 M⁻¹ s⁻¹
[3]
  kreturn/K1/2: 5169 ± 4872 M⁻¹ s⁻¹
[4]
  k2: 1430 ± 74.4 M⁻¹ s⁻¹
[5]
  kss/[Cl^−]: 5.46 ± 0.67 M⁻¹ s⁻¹
[6]; 10 nM GOxaspniger, 25 mM SCN^−, pH 7.4
  excess of wt RbMPO over GOxaspniger required for 100% bactericidal effect: at least 15 times
[6]; 150 nM wt RbMPO and 10 nM GOxaspniger (15:1 ratio), 25 mM SCN^−
  inhibition of bacterial growth: 100%
[6]; 300 nM wt RbMPO and 25 nM GOxaspniger (12:1 ratio), 25 mM SCN^−
  inhibition of bacterial growth: 100%
[6]; 300 nM wt RbMPO and 30 nM GOxaspniger (10:1 ratio), 25 mM SCN^−
  inhibition of bacterial growth: 100%
[6]; 25 mM SCN (pH 7.4), between 10 and 30 nM GOxaspniger, from 300 nM wt RbMPO
  bactericidal effect: 100%
[7]
  substrate specificity: I^−>SCN^−>Br^− Cl^−
[8]; about 50° C. to about 60° C.
  catalase activity kept: more than 80%
[8]; between 20° C. and 40° C.
  catalase activity kept: more than 90%
[8]; 10° C.
  kss: 2.04 ± 0.01 s⁻¹
[8]; 20° C.
  kss: 2.55 ± 0.02 s⁻¹
[8]; 30° C.
  kss: 2.75 ± 0.01 s⁻¹
[8]; 37°
  kss: 2.78 ± 0.01 s⁻¹
[8]; 40° C.
  kss: 2.64 ± 0.01 s⁻¹
[8]; 50° C.
  kss: 2.43 ± 0.01 s⁻¹
[8]; 60° C.
  kss: 2.39 ± 0.01 s⁻¹
[8]; pH4, 5, 8 and 9
  catalase activity, in words: no detectable catalase activity
[8]; pH6 and pH10
  catalase activity, in words: negligible
E. coli ATCC 25922
  surviving bacteria: 13,850,000±4,454,773 CFU/mL
[9]
  k2: 10620 M⁻¹ s⁻¹
[10]; 37° C., pH 4
  kss: 0 ± 0 s⁻¹
[10]; 37° C., pH 5
  kss: 1.5 ± 0.004 s⁻¹
[10]; 37° C., pH 6
  kss: 14.5 ± 0.03 s⁻¹
[10]; 37° C., pH 7
  kss: 11.0 ± 0.02 s⁻¹
[10]; 37° C., pH 8
  kss: 4.8 ± 0.01 s⁻¹
[10]; 37° C., pH 9
  kss: 1.3 ± 0.004 s⁻¹
[10]; 37° C., pH 10
  kss: 0.8 ± 0.007 s⁻¹
[10]; pH 7.5, 10° C.
  kss: 9.5 ± 0.01 s⁻¹
[10]; pH 7.5, 20° C.
  kss: 23.4 ± 0.02 s⁻¹
[10]; pH 7.5, 30° C.
  kss: 24.8 ± 0.02 s⁻¹
[10]; pH 7.5, 37° C.
  kss: 19.5 ± 0.01 s⁻¹
[10]; pH 7.5, 40° C.
  kss: 29.1 ± 0.02 s⁻¹
[10]; pH 7.5, 50° C.
  kss: 21.1 ± 0.01 s⁻¹
[10]; pH 7.5, 60° C.
  kss: 37.8 ± 0.03 s⁻¹
